The text below walks through data of the supplement of paper PMC12042874.

A short description of data set [1]: amyloid nucleation score (Sup35N fusion, yeast selection) (log enrichment); library NNK1; higher = more nucleation; inactive = no reads after selection. Summed up: (§1)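 The nucleation score is the log enrichment of output over input reads, calculated with DiMSum and centred on the mode score of non-aggregating sequences. Sequences with under 100 input reads were excluded. Reads came from Illumina sequencing of plasmid inserts from psi-negative yeast expressing Sup35N fused to peptides of 20 random codons, induced 24 hours with 100 μM copper sulfate and grown 7 days at 30°C without adenine and uracil.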

The nature of data set [2]: amyloid nucleation score (Sup35N fusion, yeast selection) (log enrichment); library NNK3; higher = more nucleation; inactive = no reads after selection. Summed up: as §1
The nature of data set [3]: amyloid nucleation score (Sup35N fusion, yeast selection) (log enrichment); library NNK2; higher = more nucleation; inactive = no reads after selection. Summed up:
as §1

± gives the uncertainty stated by the source.

In the case of GVTLYRRGIFGMSL, the amyloid nucleation score in data set [1] is 0.338 ± 0.66. On the same count and under the same terms, the same measure for GYEHVKG: -0.195 ± 0.46. With VWYWLSNNLDVW, the amyloid nucleation score in data set [1] was found to be 0.809 ± 0.98. QVRRRVGILRLWFEKWVIGR: in data set [1], the amyloid nucleation score turned out to be 0.372 ± 0.77. For the substance ASKKGPWFYSAVSYGLA, the amyloid nucleation score in data set [1] is -0.128 ± 0.34. The same measure, in the same setting: as for MGVVRLAS, the figure is -0.149 ± 0.27; as for RIKHERLIVFVMNLDINQ, 4.3 ± 0.096; as for ACWYLKRFLIMGKLSWS, -0.15 ± 0.3.

PVLRTSWTCWA: in data set [1], the amyloid nucleation score was -0.254 ± 0.6. Turning to TPAFTIFSWAIGEDYLFVEM, in data set [1], the amyloid nucleation score was 0.777 ± 0.9. On to LAFMYVGKYARRGLTIYNLI, for which the amyloid nucleation score in data set [1] is -0.335 ± 0.54. On the same count and under the same terms, as for IWNSVARFRYSSMGFVVSAV, the figure is -0.702 ± 1.7; as for VGLINHYSSSNMLG, 0.161 ± 0.62. In turn, HSVNYTLSQVNGSGLVFRAF displayed an amyloid nucleation score in data set [1] of 2.41 ± 0.12. Same read-out and setting: the same measure for PFILFQWPTLHRDYVHAQVL: 0.686 ± 1.1. The substance FRSGYRLACSAMSIAFCIYE gave an amyloid nucleation score in data set [1] of 0.341 ± 0.48. As to SRTYPVDMFPMSLKLSINVL, the amyloid nucleation score in data set [1] was -0.125 ± 0.79. Substance MNSVGAGWFGLRCNYRAHEA showed an amyloid nucleation score in data set [1] of 0.252 ± 1.1. Still for that read-out and setting: the same measure for SDALTKMDLITLRDKI: “inactive”; for EKGFVYYTRGYLRDGLGRSQ: -0.222 ± 0.35; for SMLRNTNLNAIPKFTVSFVL: -0.021 ± 0.69. Same read-out and setting: as for FRWTLTSLRSVNDFSG, the figure is 0.948 ± 0.65. With NVFSS, the amyloid nucleation score result was “inactive” in data set [2] and -0.42 ± 0.35 in data set [3]. Regarding SWEKIGDCYIRWYLLHAGCL, the amyloid nucleation score entry in data set [3] is “inactive”. On the same count and under the same terms, the same measure for KCKRLVSKNIRL: -0.342 ± 1; for SLNLFV: -0.901 ± 0.78. Still for that read-out and setting: the same measure for HREKAGSPSCREI: -0.347 ± 1. The same measure, in the same setting: the same measure for NRSFNMHPCGILKKNLVVGV: 0.613 ± 0.74; for TYSLICQSTTKRFWVWKATL: -0.619 ± 1. With NFPAWCV, the amyloid nucleation score in data set [3] is 0.495 ± 0.19. Still for that read-out and setting: as for FCLVY, the figure is 0.744 ± 0.19. The same measure, in the same setting: as for VYLFGGIRFDR, the figure is 4.04 ± 0.049; as for YILRSANLM, -0.406 ± 0.3. Still for that read-out and setting: the same measure for SGFVIWRRQHFEFQEVRSS: -0.515 ± 1.1.

For the substance NFEFFYRRNHT, the amyloid nucleation score entry in data set [3] is “inactive”. The same measure, in the same setting: the same measure for GIIRSWNIRPLEMPKE: 0.176 ± 0.27; for ASLSAFWSLTIVRVLPDKQV: 0.722 ± 0.43; for QLHIWVVIRYPLYLINKTVW: 0.436 ± 0.8. The same measure, in the same setting: as for SDRFMIVVDWVILVVLCMT, the figure is -0.611 ± 0.39; as for NSRLLLTHRRISPSPWYVGV, 1.09 ± 0.16. In the case of VTNVCGWRTEGWYDPGSAKT, the amyloid nucleation score in data set [3] amounted to 1.13 ± 0.33. Still for that read-out and setting: the same measure for RFRHGNDYGSYYFCGLLGSM: 0.264 ± 0.46.

In the case of AMSFGCSAWYTSYRDMFCRG, in data set [3], the amyloid nucleation score was determined as 3.17 ± 0.15. Still for that read-out and setting: as for RRDNPWLSHVIW, the figure is 1.06 ± 0.33; as for DRAWQFPGDRAINGVRSAFF, -1.04 ± 0.63. Same read-out and setting: the same measure for YLLYYNKWGLIK: “inactive”. With FPYIFIWFYGSVGLWRRETL, the amyloid nucleation score in data set [3] turned out to be 0.127 ± 0.79. On the same count and under the same terms, as for ETSMYVYLGI, the figure is -0.384 ± 0.35. On the same count and under the same terms, the same measure for RFRLWIVCG: -0.253 ± 0.26.

In the case of CMLEIVLLEDFQG, the amyloid nucleation score in data set [3] was -0.632 ± 0.32. Same read-out and setting: as for IYSISVLHCKGDLVYS, the entry is “inactive”; as for LGITITARAIIE, -0.898 ± 1.1.

Take CSRIHMRIARSSLF: the amyloid nucleation score in data set [3] amounted to 1.18 ± 0.39. The same measure, in the same setting: as for SKMCCDMYISISCIIWSARR, the figure is 0.352 ± 0.32; as for MVGVVWSMTRFCGQHHTILG, 0.531 ± 0.81; as for FMSFVYLHVPSANTCI, 3.83 ± 0.045. Same read-out and setting: the same measure for CRHYRRYLLNLQVGWMR: 0.978 ± 0.27; for DKKMVTTPTMPDK: 0.977 ± 0.2; for YMRVLYIRRLWIHFL: 1.92 ± 0.18.

For LFVPGLNR, in data set [3], the amyloid nucleation score turned out to be 0.047 ± 0.31. In turn, VYQYICFRVYGVVHWVGSSA showed an amyloid nucleation score in data set [3] of 1.4 ± 0.28. The same measure, in the same setting: as for YISFVGW, the figure is -2.23 ± 0.62; as for DTGNPVVWKRTVNCLSQVLW, 0.368 ± 0.62. Still for that read-out and setting: as for IMIMYFCCDMGRLGP, the figure is 8.458 ± 0.056; as for TGCNFHGRRFRCGYNGLGNP, -0.59 ± 0.37. Still for that read-out and setting: as for CMQVYTVEYTGFCCATRARK, the figure is 5.09 ± 0.066; as for WFFYWMYRGYSINMIFEMLD, -2.15 ± 0.49.

Turning to HKKCSRKKFPAPRPSRTNTS, the amyloid nucleation score in data set [3] was -0.605 ± 0.48. HLRQWDEYLETGCVN had an amyloid nucleation score in data set [3] of 0.32 ± 0.33.

IIGASCTNNSRMVLVWATVF: the amyloid nucleation score in data set [3] was -0.76 ± 1.

For PFMRYPWYFIAGYV, the amyloid nucleation score in data set [3] is -1.52 ± 0.49. Same read-out and setting: as for TYMWTSLEST, the entry is “inactive”; as for NLKMDLLRFLHMSLRYISTR, -0.36 ± 0.64; as for VVVHSTLLGFWIIF, “inactive”. WANFWSGWKVTLVCCCKIVA came in with an amyloid nucleation score in data set [3] of 3.7 ± 0.078. With LYVLVLMVCYRYGGKF, the amyloid nucleation score in data set [3] was determined as 4.38 ± 0.063. Still for that read-out and setting: as for MSVVVLWHGLCLQLYMCDA, the figure is -0.23 ± 0.65; as for VSYVYYSM, -0.242 ± 1.1; as for QEVRSF, 0.6 ± 0.66. Turning to KRQSRAVMVS, in data set [3], the amyloid nucleation score was found to be 0.037 ± 0.63.

PCRLHLAWIVSLMT yielded an amyloid nucleation score in data set [3] of 4.21 ± 0.067.

As for VGDVGMFFLSR, the amyloid nucleation score in data set [3] was -0.668 ± 0.34. Still for that read-out and setting: as for ILSNMGSMVFTLCNRDSMLR, the figure is -0.523 ± 1. Same read-out and setting: the same measure for PVYPAAYWIVSDGGCNVSWE: -0.789 ± 0.37; for SYGMRTEWTVCIAIRLHASN: 1.31 ± 0.52; for QVCRDDYEVDFLGCGCPRGH: -0.588 ± 0.44. Same read-out and setting: the same measure for RRNNTGKHFWDWETREGFSM: -0.931 ± 1.1; for SLVVPDRYVNARYCNCCYGG: 0.43 ± 0.65; for CFVIGLSMNLGHAGHKVWMT: 4.75 ± 0.086. For TSLYRVSKM, the amyloid nucleation score in data set [3] was -0.945 ± 0.76.

For the substance SFCDLWLLAQDHAKLLGFIA, the amyloid nucleation score in data set [3] was -0.499 ± 0.55. On the same count and under the same terms, as for DMYDLASRSKRELF, the entry is “inactive”; as for PVFVLNVLLVILDPFLGLSN, -0.237 ± 0.34.

CMTGNYYQP: the amyloid nucleation score entry in data set [3] was “inactive”. On the same count and under the same terms, as for TWVNYIIRKVRLVTIRLYVY, the figure is -0.011 ± 0.65. In the case of TLKLALEFLNEIYEEPVKCR, the amyloid nucleation score in data set [3] is -1.36 ± 0.48.

With FVRLTRIVESGYYDIFGKIK, the amyloid nucleation score in data set [3] is -0.429 ± 0.39. As for SGCASSSDTFDRSLCCEYTL, in data set [3], the amyloid nucleation score worked out at 0.295 ± 1. Same read-out and setting: as for CYRNNWTMWVVSQRYHRNGK, the figure is -0.289 ± 0.22; as for RCKIRSLFSNLYPDSVFTLT, “inactive”; as for KAYPFYTLHVGGRDRVIPDW, “inactive”.

QDLVGGCQLSHHHCNLSCGF: the amyloid nucleation score result in data set [3] is “inactive”. Regarding MLGCCPRVSVVPNTV, in data set [3], the amyloid nucleation score is -0.467 ± 0.45. Still for that read-out and setting: the same measure for KFWDSDVGVGGHHV: “inactive”.

Consider YILRMLLRVLSVCVCSLQRS, for which, in data set [3], the amyloid nucleation score is -0.091 ± 0.79. In data set [3], TVLGTCPVNKVVDNSREAGS yielded an amyloid nucleation score of 1.36 ± 0.49.

TGFKCSLLTY: the amyloid nucleation score in data set [3] is -0.91 ± 0.62. In turn, CHGSCSYETSVVCYMWSGKG displayed an amyloid nucleation score in data set [3] of 3.21 ± 0.14.

Regarding RIFLYND, in data set [3], the amyloid nucleation score entry is “inactive”. On the same count and under the same terms, as for SILGSSRTCILSSWWNVGTL, the figure is -0.091 ± 0.8; as for IRNTLPAAIDVSATVTFVIL, 3.17 ± 0.12. Same read-out and setting: as for VSSTSLNSKDQWCCCERGSP, the figure is 0.619 ± 0.64; as for SDGEKFG, -0.256 ± 1.1; as for TSSMTNERDNLILV, -0.187 ± 0.42.

Consider IRYTFSKLRSDCFMRCARSW, for which the amyloid nucleation score in data set [3] was determined as 0.898 ± 0.23. The substance SFIWSLMSLIEFPVLYKSVV returned an amyloid nucleation score in data set [3] of 0.067 ± 0.32. In the case of SFGTFSCLYSVYNI, the amyloid nucleation score in data set [3] turned out to be 2.84 ± 0.086. The same measure, in the same setting: as for VNVIFHEYNVDAG, the figure is 4.02 ± 0.12. With NPLRWEWAGVWLRYTR, in data set [3], the amyloid nucleation score was determined as 0.816 ± 0.58.

Take MMVRN: the amyloid nucleation score in data set [3] was determined as 1.22 ± 0.57. Consider ILNLLLVCLRIFDGLYLTRY, for which the amyloid nucleation score in data set [3] is -1.06 ± 1.1. Still for that read-out and setting: as for MYSYFSRSMTHTNNGLSSLA, the figure is 4.38 ± 0.045. In the case of KHCQLLSVSAECDRPGLWKE, the amyloid nucleation score in data set [3] turned out to be 0.75 ± 0.17. On to TFLWKFMLNVTTFFIFPKPV, for which the amyloid nucleation score in data set [3] is -1.77 ± 1.

Substance SICYFCLFLNIIDSDSIFAV displayed an amyloid nucleation score in data set [3] of 5.87 ± 0.059. Same read-out and setting: as for RNSIFNG, the figure is -0.796 ± 0.62; as for KGSDSYLFIERWCLKMNISL, “inactive”; as for DFIKMVV, 3.73 ± 0.12. On the same count and under the same terms, as for VWEVAMISTINSAGHLCLGD, the figure is -0.109 ± 0.76; as for YITAGFKESTSGQRQLRSWL, 2.08 ± 0.083; as for KYIYVYNSIGVP, -0.277 ± 1. On the same count and under the same terms, as for VTYFNVYSYCKYSAKGRCAS, the figure is 6.22 ± 0.081; as for HWNMLSIENLAHVEIIRLGS, 7.085 ± 0.043. In data set [3], CCIFWYCRADAINNCLARFD yielded an amyloid nucleation score of 7.154 ± 0.041. On the same count and under the same terms, the same measure for IKATCAGSNIFDNLALKDAS: “inactive”. Same read-out and setting: as for GTPDYGCSSNVYCD, the entry is “inactive”; as for LVSNHASYFIQI, 7.467 ± 0.035.
